Paper PMC9061262, “Structural basis of the strict specificity of a bacterial GH31 α-1,3-glucosidase for nigerooligosaccharides” (The Journal of Biological Chemistry, 2022)
One block for each molecule: values may come before it.

What was measured:
[1] = biological target: GH31_u1 protein from Lactococcus lactis subsp. cremoris MG1363 (LlGH31_u1), wild type (Lactococcus lactis subsp. cremoris MG1363); assay: crystal structure; hanging-drop vapor diffusion at 20 °C, PEG 3350, sodium citrate pH 7.0; crystal form 1 (P2_(1), six molecules in the asymmetric unit) and crystal form 2 (P6_(3)22, one molecule, hexamer by symmetry); unliganded, glucose-soaked or cocrystallised with 10 mM ligands
[2] = biological target: GH31_u1 protein from Lactococcus lactis subsp. cremoris MG1363 (LlGH31_u1), wild type (Lactococcus lactis subsp. cremoris MG1363); assay: cryo-EM structure; single-particle analysis; 1.13 μM (as a hexamer) in 20 mM sodium phosphate buffer (pH 7.0), 300 mM NaCl
[3] = biological target: GH31_u1 protein from Lactococcus lactis subsp. cremoris MG1363 (LlGH31_u1), wild type (Lactococcus lactis subsp. cremoris MG1363); assay: SEC; gel filtration on HiLoad 16/60 Superdex 200 prep grade for molecular weight determination; 20 mM sodium phosphate buffer (pH 7.0), 300 mM NaCl
[4] = tested on: O=[N+]([O-])c1ccc(O[C@H]2O[C@H](CO)[C@@H](O)[C@H](O)[C@H]2O)cc1; assay: purified protein; settings: 50 mM sodium phosphate pH 7.0, 50 mM NaCl
LlGH31_u1 = biological target: T1, LlGH31_u1 (Lactococcus cremoris, UniProt A2RM80); assay: X-ray crystal structure of complex (soaked); format: binding; settings: 100 mM glucose soak, 45 min; subsite −1; both α- and β-anomers modelled
T1 construct: gene xylS; full length (no signal peptide), N-terminal His tag, pET28a, E. coli BL21(DE3); Tyr99 of the adjacent protomer reaches the active site
T1 sequence (A2RM80 1-739): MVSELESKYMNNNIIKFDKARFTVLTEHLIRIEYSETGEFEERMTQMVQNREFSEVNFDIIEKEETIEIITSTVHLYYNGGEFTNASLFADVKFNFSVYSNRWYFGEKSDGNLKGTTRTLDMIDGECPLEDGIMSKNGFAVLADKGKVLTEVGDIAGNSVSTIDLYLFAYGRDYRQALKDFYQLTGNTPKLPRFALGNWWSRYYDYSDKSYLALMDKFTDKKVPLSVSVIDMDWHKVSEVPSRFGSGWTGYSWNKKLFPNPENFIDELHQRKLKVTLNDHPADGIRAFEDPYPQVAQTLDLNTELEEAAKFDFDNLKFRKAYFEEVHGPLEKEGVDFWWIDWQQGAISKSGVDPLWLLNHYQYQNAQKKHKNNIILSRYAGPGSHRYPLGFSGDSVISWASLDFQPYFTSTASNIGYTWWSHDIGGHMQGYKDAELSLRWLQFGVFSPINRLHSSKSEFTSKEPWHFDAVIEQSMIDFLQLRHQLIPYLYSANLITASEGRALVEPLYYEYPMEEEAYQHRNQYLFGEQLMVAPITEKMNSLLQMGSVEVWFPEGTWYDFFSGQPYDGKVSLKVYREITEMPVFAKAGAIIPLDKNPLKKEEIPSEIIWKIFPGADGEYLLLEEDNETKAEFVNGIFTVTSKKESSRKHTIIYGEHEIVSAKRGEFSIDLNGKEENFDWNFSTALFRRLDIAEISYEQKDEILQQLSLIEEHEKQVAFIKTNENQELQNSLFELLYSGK

purified protein = substrate: O=[N+]([O-])c1ccc(O[C@H]2O[C@H](CO)[C@@H](O)[C@H](O)[C@H]2O)cc1; assay: purified protein; settings: 50 mM sodium phosphate pH 7.0, 50 mM NaCl; remark: listed apart in the source

stoichiometry N [1]: 6
stoichiometry N [2]: 6
stoichiometry N [3]: 6
Molecule: GH31_u1 protein from Lactococcus lactis subsp. cremoris MG1363 (LlGH31_u1), wild type (enzyme)

Molecule: LlGH31_u1 (Lactococcus cremoris subsp. cremoris MG1363; Y99F)
Km [4]: 28 ± 0.8 mM

Molecule: OC[C@H]1OC(O)[C@H](O)[C@@H](O)[C@@H]1O (some centres unmarked) [glucose]
X-ray crystal structure of complex (soaked) (LlGH31_u1): we determined the crystal structure of WT in complex with glucose (WT-Glc)

B1: LlGH31_u1 (Lactococcus cremoris subsp. cremoris MG1363) (protein)
chain: T1 sequence (A2RM80 1-739)
Km (purified protein): 20 ± 0.8 mM
kcat (purified protein): 31 s⁻¹
kcat/Km (purified protein): 1500 M⁻¹ s⁻¹
